Biological target: biotinylated AP-neuroligin-1 on rat hippocampal neurons (mouse neuroligin-1 with acceptor peptide at the N-terminus, biotinylated with biotin ligase) (mouse) (UniProt Q99K10)
Experiment: cell-based or functional assay

Sequence of biotinylated AP-neuroligin-1 on rat hippocampal neurons (mouse neuroligin-1 with acceptor peptide at the N-terminus, biotinylated with biotin ligase) (mouse) (Q99K10 46-843, form in doubt): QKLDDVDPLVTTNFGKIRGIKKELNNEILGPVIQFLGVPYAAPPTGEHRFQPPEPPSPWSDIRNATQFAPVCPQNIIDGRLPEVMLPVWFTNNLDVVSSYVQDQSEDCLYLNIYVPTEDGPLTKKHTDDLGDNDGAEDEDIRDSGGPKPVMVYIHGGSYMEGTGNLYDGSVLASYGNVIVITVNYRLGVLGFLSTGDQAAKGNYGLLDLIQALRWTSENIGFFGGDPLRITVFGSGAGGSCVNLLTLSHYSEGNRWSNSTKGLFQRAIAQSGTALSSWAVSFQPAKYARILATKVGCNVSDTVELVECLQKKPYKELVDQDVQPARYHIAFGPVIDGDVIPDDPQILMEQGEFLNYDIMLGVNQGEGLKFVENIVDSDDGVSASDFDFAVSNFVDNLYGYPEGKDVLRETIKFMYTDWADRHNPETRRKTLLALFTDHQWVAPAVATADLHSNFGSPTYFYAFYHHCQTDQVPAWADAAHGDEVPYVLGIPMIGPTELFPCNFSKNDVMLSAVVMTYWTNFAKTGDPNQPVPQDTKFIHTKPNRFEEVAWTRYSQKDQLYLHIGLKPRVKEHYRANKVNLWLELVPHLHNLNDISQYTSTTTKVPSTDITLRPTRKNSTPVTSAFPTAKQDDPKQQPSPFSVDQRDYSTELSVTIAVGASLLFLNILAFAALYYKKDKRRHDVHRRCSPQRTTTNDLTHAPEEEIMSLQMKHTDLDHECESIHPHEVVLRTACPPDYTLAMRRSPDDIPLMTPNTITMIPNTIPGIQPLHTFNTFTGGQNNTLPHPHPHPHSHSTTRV

| clusters/µm of dendrite after two hour incubation | Substance |
| --- | --- |
| 0.266 clusters/µm | Alexa Fluor 568-conjugated wild-type streptavidin (Molecular Probes) (from UniProt P22629 37-163) |
| 0.087 clusters/µm | monovalent streptavidin A1D3 (one Alive subunit with His6 tag, three Dead subunits), Alexa Fluor 568-conjugated (designed binder) |
